Measured values from the supplement of paper PMC9170038.

Test system: MS2 coat protein
Assay: apparent KD of MS2 coat protein; designed switch direction (-1 OFF switch, 1 ON switch): -1; higher = weaker reporter binding
Method in brief: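 RNA switches sharing common flanks were transcribed by stalled E. coli RNA polymerase on Illumina chips. A doubling series of SNAP-549-labelled MS2 coat protein, from 0.7 or 1.5 nM to 3 µM, was applied in Tris-HCl pH 7.5 buffer with KCl, MgCl2, BSA, DTT, tRNA and Tween-20. Each step lasted 0.8–1.5 h at the bottom of the series and 10–20 min at the top. Normalised cluster fluorescence was curve-fitted, giving apparent KD as the per-design median over clusters.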

[1] = input ligand: microRNA oligo, concentration not stated
[2] = Eterna round: R95, input ligand: FMN 200 uM
[3] = Eterna round: R95, input ligand: microRNA oligo, concentration not stated
[4] = Eterna round: R95, input ligand: none

Sequence	apparent KD of MS2 coat protein (input ligand: FMN 200 uM)	apparent KD of MS2 coat protein (input ligand: none)	apparent KD of MS2 coat protein [1]	apparent KD of MS2 coat protein [2]	apparent KD of MS2 coat protein [3]	apparent KD of MS2 coat protein [4]
CUUUUGUGAGGAUAUUAGUAGUAAAUGAAUAAAAUUAUUACUAAGAAGGCACAUGAGGAUCACCCAUGUUCCUC [Mat - Exclusion 4 - Eli Mod - D1] (Eterna round: R97, puzzle: Exclusion 4)	393 nM	54.4 nM	–	–	–	–
CUUUUUGUUGAGGAUAUGCACCAGCUCACUGACGCAGAAGGCGACACAUGAGGAUCACCCAUGUCAGUUCGCGU [salish99_ex6_r004_431] (Eterna round: R97, puzzle: Exclusion 6)	21.5 nM	16.8 nM	–	–	–	–
GAAAAGGUAGAGGAUAUUUCAGAUCAAAGCUGCAAAGAAGGCUGCACAUGAGGAUCACCCAUGUGGUCAACAAA [Mod of Quesina 13 - Jieux - Exclusion 6] (Eterna round: R97, puzzle: Exclusion 6)	66.1 nM	21.1 nM	–	–	–	–
GAAAAGGUAGGAUAUACGAAAAAAAAGGGUAGAAAAAAAACACAUGAGGAUCACCCAUGUAGAAGGACCAAAAG [Mat - Exclusion 2 - Tesla mod - D30] (Eterna round: R96, puzzle: Exclusion 2)	–	–	25.3 nM	–	–	–
GAAAAGGUAGGAUAUACGAAAAAAAAGGGUAGAAAAAAAACACAUGAGGAUCACCCAUGUAGAAGGACCAAAAG [salish99_ex2_r3_015] (puzzle: Exclusion 2)	–	–	–	57.8 nM	28.7 nM	27.2 nM
GAAAAGGUAGGAUAUACGAAAAAAAAGGGUAGAAAAAAAACACAUGAGGAUCACCCAUGUAGAAGGACCGAAAG [salish99_ex2_r3_037] (puzzle: Exclusion 2)	–	–	–	58.5 nM	36.8 nM	32.7 nM
GAAAAGGUAGGAUAUACGAAAAAAUAGGGUAGAAAAAAAACACAUGAGGAUCACCCAUGUAGAAGGACCAAAAG [salish99_ex2_r3_081] (puzzle: Exclusion 2)	–	–	–	47.6 nM	33.7 nM	27.5 nM
GAAAAGGUAGGAUAUACGAAAAAUAAGGGUAGAAAAAAAACACAUGAGGAUCACCCAUGUAGAAGGACCAAAAG [salish99_ex2_r3_082] (puzzle: Exclusion 2)	–	–	–	65.7 nM	27.8 nM	33 nM
GAAAAGGUAGGAUAUACGAAAAUAAAGGGUAGAAAAAAAACACAUGAGGAUCACCCAUGUAGAAGGACCAAAAG [salish99_ex2_r3_083] (puzzle: Exclusion 2)	–	–	–	68.3 nM	33.4 nM	36.4 nM
GAAAAGGUAGGAUAUACGAAUAAAAAGGGUAGAAAAAAAACACAUGAGGAUCACCCAUGUAGAAGGACCAAAAG [salish99_ex2_r3_085] (puzzle: Exclusion 2)	–	–	–	67.7 nM	25 nM	24.4 nM
GAAAAGGUAGGAUAUGCGAAAAAAAAGGGUAGAAAAAAAACACAUGAGGAUCACCCAUGUAGAAGGACCAAAAG [salish99_ex2_r3_031] (puzzle: Exclusion 2)	–	–	–	26.1 nM	31.2 nM	32 nM
GAAAAGUGAGGAUAUGGUAAAAGAAAAAGAAGAAGAAAACUCCAGAAGGCACAUGAGGAUCACCCAUGUGAAAG [salish99_ex4_r3_007] (puzzle: Exclusion 4)	–	–	–	22.2 nM	17.4 nM	15.7 nM
GAAAGGGUAGGAUAUACGAAAAAAAAGGGUAGAAAAAAAACACAUGAGGAUCACCCAUGUAGAAGGACCAAAAG [salish99_ex2_r3_033] (puzzle: Exclusion 2)	–	–	–	40.2 nM	30.9 nM	27.2 nM
GAACGCCGGCAGGAUAUGGACAGCCAAAAGGCGCCAGAAGGGCCAACAUGAGGAUCACCCAUGUGUCCUGAUGG [Riceanon] (puzzle: Exclusion 6)	–	–	–	10.9 nM	8.46 nM	10.3 nM
GAACUCGUGAAGGAUAUCCGUACCAAAGCGGCAGGAGAAGGUCACACAUGAGGAUCACCCAUGUGGUACCUCGU [Xeinbira] (Eterna round: R96, puzzle: Exclusion 6)	–	–	23.6 nM	–	–	–
GAACUCGUGAAGGAUAUCCGUACCAAAGCGGCAGGAGAAGGUCACACAUGAGGAUCACCCAUGUGGUACCUCGU [Xeinbira] (puzzle: Exclusion 6)	–	–	–	80.1 nM	27.4 nM	25.1 nM
GAACUGAAGCUUUGCUUUAGUCGUACAUGAGGAUCACCCAUGUAGGAUAUGGUAGGCAAAGCUUACUAGAAGGACAGAGUGAUC [Mat - Exclusion NG 3 - Mod of JL - D69] (Eterna round: R96, puzzle: Exclusion NG 3)	99.1 nM	71.3 nM	156 nM	–	–	–

Sequence	apparent KD of MS2 coat protein (input ligand: FMN 200 uM)	apparent KD of MS2 coat protein (input ligand: none)	apparent KD of MS2 coat protein [1]	apparent KD of MS2 coat protein [2]	apparent KD of MS2 coat protein [3]	apparent KD of MS2 coat protein [4]
GAAGAAAACCAAGGAUAUCGGAAAGGAAGUGUACGAGAAGGUGGACAUGGACAUGAGGAUCACCCAUGUGGCCCGAUGCCGUGG [PowerStrip EXNG 1.5] (Eterna round: R96, puzzle: Exclusion NG 1)	54.8 nM	38.1 nM	33.5 nM	–	–	–
GAAGAACAUGAGGAUCACCCAUGUGAGGAUAUGAAAAAGAAAAGAAAAGAAAGAAGAAUCAGAAGGCACAAAGG [Mat - Mod of Hog D2] (puzzle: Exclusion 1)	–	–	–	50.8 nM	23.1 nM	38.3 nM
GAAGAUCUGCAGGAUAUGAGACUGAAACAGUUCUCAGAAGGGCGGACAUGAGGAUCACCCAUGUAAGACUGCAA [Eternabot (Original) Solution 4] (Eterna round: R97, puzzle: Exclusion 6)	41.6 nM	78.8 nM	–	–	–	–
GAAGCACAUGAGGAUCACCCAUGUAAGGAUAUAUUUCUGGUCCGGCCGGACCAGUACCGUAGAAGGUAUGUAAA [Excls-IIIa] (puzzle: Exclusion 1)	–	–	–	–	11.8 nM	–
GAAUAGAGAGGAUAUGCGAUGUAGGUAGUACGAUAUAUCUGACAUGAGGAUCACCCAUGUAGAAGGCUCAGAUC [EX2 #6] (Eterna round: R97, puzzle: Exclusion 2)	33.9 nM	36.4 nM	–	–	–	–
GAAUAGGCAGGAUAUACAUGAGGAUCACCCAUGUGCCGGCGAAAGGUACGUUCGAAAGGUAGAAGGGCCUAAAC [ChP 13.04.2015 #7] (Eterna round: R96, puzzle: Exclusion 3)	176 nM	41.8 nM	36.7 nM	–	–	–
GAAUAGGCAGGAUAUACAUGAGGAUCACCCAUGUGCCGGCGAAAGGUACGUUCGAAAGGUAGAAGGGCCUAAAC [ChP 13.04.2015 #7] (puzzle: Exclusion 3)	–	–	–	151 nM	43.8 nM	48.9 nM
GAAUGAGAGCAGGAUAUCUUAAAAAUGUAUCAAAGAGAAGGGCUCACAUGAGGAUCACCCAUGUGGUCCUAGAU [jl-ex6-4.67 jandersonlee mod] (Eterna round: R97, puzzle: Exclusion 6)	152 nM	22.5 nM	–	–	–	–
GAAUGAGAGCAGGAUAUCUUAUAAAUGUAUGAAAGAGAAGGGCUCACAUGAGGAUCACCCAUGUGGUCCUAGAC [jl-ex6-4.72 jandersonlee mod] (Eterna round: R97, puzzle: Exclusion 6)	309 nM	40.1 nM	–	–	–	–
GACAGGCAGGCAGGAUAUGCCCGUGUGGAUGGUGUAGAAGGGCUAGCGGGUCACUUGAGGAUCACCCAAGUGGAGGGUGGCCUA [Mutated MS2 EX1.28] (Eterna round: R96, puzzle: Exclusion NG 1)	51.3 nM	38.2 nM	31.2 nM	–	–	–
GACAUGAGGAUCACCCAUGUAAGGGAUGAACUUCUGGGUAGCUAGGAUAUGGCUAUAAAGAUGGACCAGAAGGAGCGGACCCUA [Orlaveceat] (Eterna round: R96, puzzle: Exclusion NG 3)	48.7 nM	32.4 nM	31.4 nM	–	–	–
GACCGGACGUGGUCUGGUAACAUGAGGAUCACCCAUGUAGGUCUAAGAACAAGCCUUUUGCACGCUCGUCUUAUAUU [JR_SV3TOV1_Sub061] (puzzle: Sensor v3, turn-off variant 1)	–	–	–	64.4 nM	56.5 nM	88.2 nM
GACCUGUGAGGAUAUUAUUAAAGGCCAAGUUAGGCCUUAAUUGAGAAGGCACAUGAGGAUCACCCAUGUUUGAC [Eternabot (L2) Solution 55] (Eterna round: R97, puzzle: Exclusion 4)	90.3 nM	22.3 nM	–	–	–	–
GACGAGUGAGGAUAUGGUGAGUAGUGCCUGAGCGCUGCUCACCAGAAGGCACAUGAGGAUCACCCAUGUAUGUC [Mat - Exclusion 4 - Mod of JL - D11] (puzzle: Exclusion 4)	–	–	–	–	13.2 nM	–
GACUAGGGAGGAUAUAUUUACAGUGUACCUCGGAUGAUCGCACUUGAGGAUCACCCAAGUAGAAGGCUCGAGGG [EX2 #28] (Eterna round: R97, puzzle: Exclusion 2)	30.4 nM	33.2 nM	–	–	–	–
GACUCAAUCCGAGGAUAUUGCCAGCGCUGCUAUCACAUGAGGAUCACCCAUGUAUCCUCGGCUUUCGAGAAGGCGGAUUGAGCG [Eternabot solution 35] (Eterna round: R96, puzzle: Exclusion NG 2)	132 nM	49.9 nM	46.8 nM	–	–	–
GAGAAGGUAGGAUAUACGAAGAAAGAGGGUAGGAAGAAUACACAUGAGGAUCACCCAUGUAGAAGGACCAAGAG [Mat - Exclusion 2 - Mod of my Tesla design - D47] (puzzle: Exclusion 2)	–	–	–	32.9 nM	17.8 nM	23 nM
